These results are taken from patent publication US20200325179A1 (EUROPEAN MOLECULAR BIOLOGY LABORATORY, published 2020).

Assay [1] has as its target T1, ADDomer with one cysteine mutation A477C (synthetic penton base protomer based on …).
T1 construct: Virus-like particle: 12 pentamers of 5 engineered penton base protomers each; also called Cys-ADDomer; Cys modified ADDomer
T1 chain: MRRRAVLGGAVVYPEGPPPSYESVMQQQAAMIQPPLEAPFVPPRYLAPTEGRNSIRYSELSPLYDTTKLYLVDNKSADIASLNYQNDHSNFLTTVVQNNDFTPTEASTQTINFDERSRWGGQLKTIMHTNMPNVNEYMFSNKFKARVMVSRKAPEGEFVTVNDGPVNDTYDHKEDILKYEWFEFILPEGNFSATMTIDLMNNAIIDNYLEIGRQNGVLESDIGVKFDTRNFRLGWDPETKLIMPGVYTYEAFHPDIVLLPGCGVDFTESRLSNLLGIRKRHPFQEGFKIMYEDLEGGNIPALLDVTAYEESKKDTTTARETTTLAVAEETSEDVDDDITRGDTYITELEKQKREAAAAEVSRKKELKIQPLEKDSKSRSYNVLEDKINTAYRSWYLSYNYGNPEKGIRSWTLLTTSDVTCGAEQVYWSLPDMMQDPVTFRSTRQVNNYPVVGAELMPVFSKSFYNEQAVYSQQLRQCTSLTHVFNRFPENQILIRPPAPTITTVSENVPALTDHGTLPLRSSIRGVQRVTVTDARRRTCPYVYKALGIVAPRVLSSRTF
The assay can be described thus: non-reducing SDS-PAGE and blot; biotinylated peptide detected with Alexa488 avidin, ADDomer with a specific antibody and a Cy3 secondary antibody; covalent disulfide. The method, then:
(§1) FIG. 14: Covalent coupling of “STICKER” peptide to ADDomer containing targeted cystein mutations. Wild-type ADDomer (wt) and ADDomer with one cysteine mutation (K363C, Q476C or A477C, respectively) were incubated with STICKER peptides (C20 (SEQ ID NO: 77) and C9 (SEQ ID NO: 75), respectively). SDS-PAGE analysis was performed under reducing (+bMeSH) and non-reducing (−bMeSH) conditions and transferred to a PVDF membrane. ADDomer (dark grey) and STICKER peptide (light grey) were visualized by binding of labelled antibody and Avidin binding, respectively, evidencing STICKER binding to cysteine-mutant ADDomer by specific disulfide bond formation (marked by white circle in lower panel)
(§2) To widen the ADDomer potential, a system enabling the addition of extra epitopes at the ADDomer was developed. Single cysteines were inserted at specific locationd of the ADDomer sequence (either K363C or Q476C or A477C). […] Complexes were run on SDS-PAGE and ADDomer was detected by a specific antibody and a secondary antibody labelled with Cy3 while the biotinylated peptide was detected by Alexa488 labeled avidin. When the right Cys-ADDomer/peptide was used, the presence of peptide was detected at the ADDomer band size (circle in FIG. 14). […]

Assay [2] addresses T2, ADDomer with one cysteine mutation Q476C (synthetic penton base protomer based on …).
T2 construct: Virus-like particle: 12 pentamers of 5 engineered penton base protomers each; also called Cys-ADDomer; Cys modified ADDomer
T2 chain: T1 chain with Q476C, C477A
Described as above. As to the method:
as §1, §2

Positions count from the first letter of the chain named. Ends that are not written are not given here.

Consider AKRARLSTCFNPVYPYEDES (also: biotinylated (position not given here), Detected by Alexa488 labelled avidin) [STICKER peptide C9 (fibre protein fragment, Cys at position 9)], for which the binding result in assay [1] and in assay [2] was “binds” throughout.
